Article PMC8855710
Values belong to the substance of their own block, whether it stands above or below them.

Legend:
[1] = biological target: htt^ex1Q7 (huntingtin exon-1 polypeptide with seven glutamines); assay: NMR titration
[2] = biological target: huntingtin exon 1 (httex1Q7) dimer exon 1 (Homo sapiens) (UniProt P42858); conditions: cited from earlier work
[3] = biological target: PL: binary complex of monomeric htt^ex1Q7 with Fyn SH3 (not stated | Gallus gallus) (UniProt Q05876); assay: NMR titration

- Kd [1]: 210 µM
Substance: Gallus gallus tyrosine kinase Fyn SH3 domain (wild type) (from UniProt Q05876 85-135) (domain or fragment)

Substance: huntingtin exon 1 (httex1Q7) dimer exon 1 (from UniProt P42858)
- Kd [2]: 25 µM

- stoichiometry N [3]: 2
Substance: PL: binary complex of monomeric htt^ex1Q7 with Fyn SH3 (from UniProt Q05876 85-135)
